Measurements: publication PMC8280269, “A novel mycothiol-dependent thiol–disulfide reductase in Corynebacterium glutamicum involving oxidative stress resistance” (3 Biotech, 2021)
Numbering of substitutions follows the chain as printed. Numbers in names are those of the source.

What was measured:
NCgl2478 = target: T1, NCgl2478 (Corynebacterium glutamicum, UniProt Q8NMK6, C24S); test: NBD-Cl labelling and DTNB thiol count after H2O2 with MSH; assay type: binding; settings: covalent; mixed disulfide at Cys21 formed from the H2O2-oxidised sulfenic acid
T1 construct: gene Cgl2567; full-length, N-terminal His6 from pET28a, E. coli BL21(DE3); tag cut with enterokinase for activity assays
T1 sequence (Q8NMK6 1-245 C24S): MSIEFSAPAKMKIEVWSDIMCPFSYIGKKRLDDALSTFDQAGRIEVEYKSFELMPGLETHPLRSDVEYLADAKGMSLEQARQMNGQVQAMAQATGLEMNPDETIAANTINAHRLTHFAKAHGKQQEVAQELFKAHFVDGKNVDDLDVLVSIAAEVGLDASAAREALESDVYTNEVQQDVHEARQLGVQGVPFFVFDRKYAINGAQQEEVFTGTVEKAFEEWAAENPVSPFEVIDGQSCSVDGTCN

Cys21 = test: UV-vis; settings: 10 °C; poly-buffer: 10 mM sodium acetate, 10 mM sodium phosphate, 10 mM sodium borate, 10 mM sodium citrate, starting pH 9.4, titrated with 100 mM HCl; 20 μM protein; reduced protein, referenced to the oxidized protein (Cys mutants oxidized with tenfold excess H2O2); no ligand
Cys24 = test: UV-vis; settings: 10 °C; poly-buffer: 10 mM sodium acetate, 10 mM sodium phosphate, 10 mM sodium borate, 10 mM sodium citrate, starting pH 9.4, titrated with 100 mM HCl; 20 μM protein; reduced protein, referenced to the oxidized protein (Cys mutants oxidized with tenfold excess H2O2); no ligand
purified protein = substrate: CC(=O)N[C@@H](CSSCCO)C(=O)N[C@H]1[C@@H](O[C@@H]2[C@H](O)[C@H](O)[C@@H](O)[C@H](O)[C@H]2O)O[C@H](CO)[C@@H](O)[C@@H]1O; test: purified protein; assay type: biochemical, Corynebacterium glutamicum; settings: 500 μM MSH, 5 μM Mtr, 250 μM NADPH, 50 mM potassium phosphate pH 7.6, 25 °C, substrate formed in situ from HED and MSH

CC(=O)N[C@@H](CS)C(=O)NC1[C@@H](O[C@@H]2[C@H](O)[C@H](O)[C@@H](O)[C@H](O)[C@H]2O)O[C@H](CO)[C@@H](O)[C@@H]1O (stereo partly drawn) [MSH, 1D-myo-inosityl-2-[N-acetyl-L-cysteinyl] amido-2-deoxy-α-D-glucopyranoside]
NBD-Cl labelling and DTNB thiol count after H2O2 with MSH (NCgl2478): MSH reacted with NCgl2478:C24S–SOH to form NCgl2478:C24S–SSM

NCgl2478 (DsbA-like mycoredoxin / mycothiol-dependent thiol-disulfide reductase, annotated dithiol-disulfide isomerase DsbA) (Corynebacterium glutamicum (RES167, derived from ATCC 13032))
pKa (Cys21): less than 6 | pKa (Cys24): 8.09

B1: Mrx1 (Corynebacterium glutamicum ATCC 13032) (protein)
chain: MSNVTIYATDWCPYCRSLLKGLDGQEYDLIDVDQDEEAGEWVKSVNDGNRIVPTVRYSDGTHATNPLAAEVIAKIEALA
notes: pET28a-mrx1, N-terminal His6, E. coli BL21(DE3); tag cut for activity assays
Km (purified protein): 540 ± 110 µM | kcat (purified protein): 103.81 ± 3.14 s⁻¹

B2: NCgl2478 (Corynebacterium glutamicum ATCC 13032) (protein)
chain: T1 sequence (Q8NMK6 1-245 C24S) with S24C
notes: full-length, N-terminal His6 from pET28a, E. coli BL21(DE3); tag cut with enterokinase for activity assays
Km (purified protein): 510 ± 50 µM | kcat (purified protein): 8.55 ± 0.19 s⁻¹

B3: NCgl2478 (Corynebacterium glutamicum ATCC 13032; C24S) (protein)
chain: T1 sequence (Q8NMK6 1-245 C24S)
notes: as for B2
Km (purified protein): 460 ± 50 µM | kcat (purified protein): 11.37 ± 0.31 s⁻¹
